Measurements reported in the supplement of paper PMC10567573.

B1: VPS39 (parent)
chain: LRLENNHCHIEESEHVLKKAHKYS
B2: DVL3 (parent)
chain: YNPHPGFPELGYSYGGGSASSQHS

Variants of: B1
Experiment: protein stability index of a GFP-peptide fusion (GPS, HEK-293T) (PSI 1-6); higher = more stable
Conditions: c terminus: a fixed tail appended
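Also: lentivirally expressed fusions sorted by FACS into six bins by GFP to DsRed ratio, PSI derived from sequencing read proportions per bin multiplied by bin number.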

Going from L1G to L1F, the protein stability index falls from 4.6 to 2.3.

First: L1A
Second: L1D
The protein stability index of the first is lower: 3.91 for the first, 4.36 for the second.

First: L1I
Second: L1M
The protein stability index of the first is higher: 3.44 for the first, 2.99 for the second.

Going from L1N to L1R, the protein stability index falls from 3.65 to 3.48.

Going from L1P to L1E, the protein stability index rises from 3.79 to 4.29.

First: L1C
Second: L1K
The protein stability index of the first is lower: 3.29 for the first, 4.2 for the second.

Going from L1Q to L1H, the protein stability index falls from 4.08 to 4.02.

Variants of: B2
Experiment: as above
Conditions: c terminus: a fixed tail appended

First: S24D
Second: S24F
The protein stability index of the first is higher: 3.13 for the first, 2.14 for the second.

Compared with S24H, S24I is higher in protein stability index: 2.33 for the first, 2.56 for the second.

First: S24T
Second: S24G
The protein stability index of the first is lower: 1.78 for the first, 3.11 for the second.

Going from S24M to S24Y, the protein stability index falls from 2.44 to 2.26.

Compared with S24L, S24W is lower in protein stability index: 2.62 for the first, 2.03 for the second.

Going from S24N to S24P, the protein stability index rises from 2.42 to 3.36.

Compared with S24V, S24A is lower in protein stability index: 2.41 for the first, 2.33 for the second.

Going from S24E to S24K, the protein stability index rises from 2.41 to 2.76.

First: S24R
Second: S18M
The protein stability index of the first is lower: 1.87 for the first, 2.08 for the second.

First: S18V
Second: S18A
The protein stability index of the first is lower: 2.72 for the first, 2.94 for the second.

Going from S18I to S18C, the protein stability index rises from 2.49 to 2.57.

First: S18F
Second: S18E
The protein stability index of the first is lower: 2.58 for the first, 3.19 for the second.

First: S18G
Second: S18Y
The protein stability index of the first is higher: 2.68 for the first, 2.11 for the second.

Compared with S18D, S18L is lower in protein stability index: 2.85 for the first, 1.83 for the second.

Going from S18N to S18K, the protein stability index rises from 3 to 3.09.

Going from S18W to S18R, the protein stability index rises from 1.65 to 2.44.

Going from S18T to S18H, the protein stability index rises from 2.26 to 2.53.

Compared with S18P, S18Q is higher in protein stability index: 2.71 for the first, 2.92 for the second.

Compared with H23M, H23N is lower in protein stability index: 3.04 for the first, 2.99 for the second.

Compared with H23W, H23E is higher in protein stability index: 2.19 for the first, 2.6 for the second.

Going from H23T to H23V, the protein stability index falls from 3.2 to 2.32.

Going from H23R to H23I, the protein stability index falls from 3 to 2.9.

Going from H23S to H23G, the protein stability index rises from 2.62 to 2.78.

First: H23P
Second: H23Q
The protein stability index of the first is higher: 2.79 for the first, 2.58 for the second.

Compared with H23D, H23C is lower in protein stability index: 3.14 for the first, 2.38 for the second.

First: H23Y
Second: H23L
The protein stability index of the first is higher: 2.92 for the first, 2.86 for the second.

First: H23A
Second: H23F
The protein stability index of the first is higher: 2.62 for the first, 2.37 for the second.

First: H23K
Second: Q22S
The protein stability index of the first is higher: 2.87 for the first, 2.71 for the second.

Going from Q22D to Q22Y, the protein stability index falls from 3.41 to 2.4.

Compared with Q22V, Q22K is higher in protein stability index: 2.33 for the first, 3.4 for the second.

First: Q22H
Second: Q22P
The protein stability index of the first is lower: 2.73 for the first, 2.98 for the second.

Going from Q22N to Q22C, the protein stability index falls from 2.6 to 2.13.

First: Q22A
Second: Q22W
The protein stability index of the first is higher: 2.23 for the first, 2.06 for the second.

Going from Q22F to Q22L, the protein stability index falls from 2.88 to 1.67.

Going from Q22E to Q22R, the protein stability index falls from 2.85 to 2.58.

Going from Q22M to Q22I, the protein stability index rises from 2.08 to 2.33.

First: Q22T
Second: Q22G
The protein stability index of the first is higher: 3.69 for the first, 2.62 for the second.

Compared with S20W, S20Y is lower in protein stability index: 1.95 for the first, 1.79 for the second.

First: S20V
Second: S20D
The protein stability index of the first is higher: 3.12 for the first, 3.09 for the second.

First: S20G
Second: S20Q
The protein stability index of the first is higher: 2.97 for the first, 2.66 for the second.

Going from S20C to S20N, the protein stability index falls from 2.88 to 2.74.

Going from S20T to S20H, the protein stability index rises from 2.58 to 2.59.

First: S20K
Second: S20E
The protein stability index of the first is lower: 2.65 for the first, 2.95 for the second.

Compared with S20R, S20P is higher in protein stability index: 2.73 for the first, 2.89 for the second.

First: S20L
Second: S20I
The protein stability index of the first is higher: 2.2 for the first, 2.08 for the second.

Compared with S20M, S20A is higher in protein stability index: 2.46 for the first, 3.01 for the second.

Going from S20F to A19C, the protein stability index rises from 2 to 2.19.

First: A19W
Second: A19L
The protein stability index of the first is lower: 1.4 for the first, 2.17 for the second.

First: A19Q
Second: A19G
The protein stability index of the first is lower: 2.99 for the first, 3.57 for the second.

Compared with A19E, A19I is lower in protein stability index: 2.92 for the first, 2.3 for the second.

Going from A19P to A19K, the protein stability index rises from 2.74 to 2.94.

First: A19M
Second: A19N
The protein stability index of the first is lower: 2.57 for the first, 3.07 for the second.

Going from A19F to A19R, the protein stability index rises from 2.09 to 3.04.

Going from A19T to A19D, the protein stability index rises from 2.53 to 3.01.

First: A19H
Second: A19V
The protein stability index of the first is higher: 2.3 for the first, 2.03 for the second.

Compared with A19S, A19Y is lower in protein stability index: 2.79 for the first, 2.4 for the second.

Compared with G17D, G17P is lower in protein stability index: 2.72 for the first, 2.62 for the second.

Compared with G17T, G17H is lower in protein stability index: 2.85 for the first, 2.15 for the second.

Going from G17A to G17R, the protein stability index rises from 2.73 to 2.82.

Compared with G17I, G17V is lower in protein stability index: 1.96 for the first, 1.63 for the second.

First: G17F
Second: G17L
The protein stability index of the first is lower: 1.77 for the first, 2.14 for the second.

Going from G17C to G17M, the protein stability index falls from 3.22 to 2.25.

Compared with G17S, G17E is lower in protein stability index: 3.29 for the first, 3.05 for the second.

First: G17N
Second: G17W
The protein stability index of the first is higher: 2.6 for the first, 1.69 for the second.

First: G17Q
Second: G17Y
The protein stability index of the first is higher: 2.87 for the first, 2.23 for the second.

Compared with G17K, G16V is lower in protein stability index: 2.83 for the first, 1.89 for the second.

Compared with G16W, G16Y is higher in protein stability index: 2.04 for the first, 2.32 for the second.

First: S21G
Second: S21K
The protein stability index of the first is higher: 2.61 for the first, 2.54 for the second.

Compared with S21P, S21V is higher in protein stability index: 2.88 for the first, 3.41 for the second.

Compared with S21T, S21R is higher in protein stability index: 2.64 for the first, 2.86 for the second.

Going from S21Q to S21N, the protein stability index falls from 2.79 to 2.62.

Going from S21L to S21Y, the protein stability index rises from 2.24 to 2.37.

Compared with S21W, S21D is higher in protein stability index: 1.95 for the first, 3.01 for the second.

First: S21M
Second: S21I
The protein stability index of the first is higher: 2.89 for the first, 2.56 for the second.

Going from S21H to S21F, the protein stability index falls from 2.55 to 1.88.

First: S21A
Second: S21C
The protein stability index of the first is higher: 3.1 for the first, 2.1 for the second.

S21E gave a protein stability index of 2.96.
